Measurements: patent US20090005298A1 (published 2009)

B1: Rat recombinant BSP (rBSP) (other)
chain: FSMKNFHRRIKAEDSEENGVFKYRPRYFLYKHATYFYPPLKRFPVQGGSDSSEENGDGDSSEEEGEEEETSNEEENNEDSEGNEDQEAEAENATLSGVTASYGVETTADAGKLELAALQLPKKAGDAEGKAPKMKESDEEEEEEEEEENENEEAEVDENEQVVNGTSTNSTEVDGGNGPSGGDNGEEAEEASVTEAGAEGTTAGVRELTSYGTTTAVLLNGFQQTTPPPEAYGTTSPPARKSSTVEYGEEYEQIGNEYNTAYETYDENNGEPRGDTYRAYEDEYSYYKGHGYEGYEGQDYYYHQ
modifications: biotinylated with Sulfo-NHS-Biotin where used as the labelled protein in competition assays

Tests used:
[1] = biological target: T1, Rat tail tendon type I collagen (rat, UniProt P02454 152-1207; P02466 86-1125); assay: solid-phase collagen-binding assay, anti-His detection, one-site binding model
T1 sequence (P02454 152-1207 limits assumed, chain 1 of 2): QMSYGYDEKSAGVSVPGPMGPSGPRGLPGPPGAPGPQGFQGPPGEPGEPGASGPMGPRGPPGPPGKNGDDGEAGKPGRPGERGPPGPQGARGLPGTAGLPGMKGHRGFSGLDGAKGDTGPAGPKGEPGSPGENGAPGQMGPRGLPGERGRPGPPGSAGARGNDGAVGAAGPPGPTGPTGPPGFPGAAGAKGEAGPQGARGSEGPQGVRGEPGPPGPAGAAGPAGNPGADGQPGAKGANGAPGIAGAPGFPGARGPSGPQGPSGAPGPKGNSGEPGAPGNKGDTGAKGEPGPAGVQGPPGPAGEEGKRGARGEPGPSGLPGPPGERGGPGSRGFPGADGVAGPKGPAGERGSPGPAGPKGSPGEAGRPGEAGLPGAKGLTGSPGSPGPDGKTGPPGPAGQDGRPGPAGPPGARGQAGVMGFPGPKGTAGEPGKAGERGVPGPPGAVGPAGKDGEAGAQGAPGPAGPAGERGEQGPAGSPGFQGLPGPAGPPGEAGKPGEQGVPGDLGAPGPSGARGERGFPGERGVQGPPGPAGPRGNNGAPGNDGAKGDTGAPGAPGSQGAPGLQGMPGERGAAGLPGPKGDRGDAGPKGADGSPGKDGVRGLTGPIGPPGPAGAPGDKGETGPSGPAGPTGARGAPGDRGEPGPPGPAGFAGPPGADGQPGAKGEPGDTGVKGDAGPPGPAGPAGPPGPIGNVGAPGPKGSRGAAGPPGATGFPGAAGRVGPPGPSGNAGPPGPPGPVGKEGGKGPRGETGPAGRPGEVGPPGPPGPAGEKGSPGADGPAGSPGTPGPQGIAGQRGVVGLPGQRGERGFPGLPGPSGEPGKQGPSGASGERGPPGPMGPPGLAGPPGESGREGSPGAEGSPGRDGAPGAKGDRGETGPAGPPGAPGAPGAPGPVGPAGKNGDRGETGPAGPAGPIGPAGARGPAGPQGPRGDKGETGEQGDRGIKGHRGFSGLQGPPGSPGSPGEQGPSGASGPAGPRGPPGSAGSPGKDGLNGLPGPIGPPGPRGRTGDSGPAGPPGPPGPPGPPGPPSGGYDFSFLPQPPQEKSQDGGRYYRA
T1 sequence (P02466 86-1125 limits assumed, chain 2 of 2): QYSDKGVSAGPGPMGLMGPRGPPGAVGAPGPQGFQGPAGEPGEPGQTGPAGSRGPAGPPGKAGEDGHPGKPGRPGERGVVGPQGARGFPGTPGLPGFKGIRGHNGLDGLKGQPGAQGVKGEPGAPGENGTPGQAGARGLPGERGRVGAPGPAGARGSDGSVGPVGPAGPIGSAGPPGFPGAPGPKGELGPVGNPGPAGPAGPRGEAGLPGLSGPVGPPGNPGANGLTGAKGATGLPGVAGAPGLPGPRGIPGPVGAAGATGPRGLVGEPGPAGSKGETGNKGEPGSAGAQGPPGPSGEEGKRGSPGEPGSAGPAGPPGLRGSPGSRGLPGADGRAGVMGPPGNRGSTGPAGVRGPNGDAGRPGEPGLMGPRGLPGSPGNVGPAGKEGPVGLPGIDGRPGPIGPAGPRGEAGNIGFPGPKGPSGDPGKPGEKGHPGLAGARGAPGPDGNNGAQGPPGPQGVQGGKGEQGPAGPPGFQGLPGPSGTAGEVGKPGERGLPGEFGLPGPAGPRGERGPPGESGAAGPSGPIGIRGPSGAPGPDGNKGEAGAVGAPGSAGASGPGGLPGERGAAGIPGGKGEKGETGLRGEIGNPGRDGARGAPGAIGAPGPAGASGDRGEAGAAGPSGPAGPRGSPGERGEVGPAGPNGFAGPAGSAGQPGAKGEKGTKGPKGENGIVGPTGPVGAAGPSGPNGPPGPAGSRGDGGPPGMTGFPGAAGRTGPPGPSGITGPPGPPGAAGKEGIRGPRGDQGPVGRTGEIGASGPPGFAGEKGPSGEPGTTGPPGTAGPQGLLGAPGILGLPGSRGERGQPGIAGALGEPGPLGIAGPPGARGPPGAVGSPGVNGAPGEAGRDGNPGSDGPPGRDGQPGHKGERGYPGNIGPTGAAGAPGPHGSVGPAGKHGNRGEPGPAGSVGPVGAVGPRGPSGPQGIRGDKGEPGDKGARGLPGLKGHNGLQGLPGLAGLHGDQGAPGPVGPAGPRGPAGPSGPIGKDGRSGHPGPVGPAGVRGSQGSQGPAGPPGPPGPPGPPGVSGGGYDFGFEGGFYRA

[2] = biological target: T1, Rat tail tendon type I collagen; assay: cell-based or functional assay

Row | Molecule | Kd [1] | nucleating activity of rBSP in a collagen scaffold (hydroxyapatite nucleation) [2]
1 | rBSP(1-75) (from UniProt P13839 1-75) (peptide) | 4.04 nM | –
2 | rBSP(1-100) (from UniProt P13839 1-100) (peptide) | 5.64 nM | –
3 | rBSP(19-100) (from UniProt P13839 19-100) (peptide) | 50.3 nM | –
4 | B1 | 22.9 nM | 0.025 nmol
